Tests used:
Assay in all cases: FLAG immunoprecipitation and LC/ESI-MS/MS
Conditions in all cases: HEK293T cells, three biological replicates; read off a plot
FUBP3 = biological target: FUBP3
HNRNPA2B1 = biological target: HNRNPA2B1
ILF3 = biological target: ILF3
MYH9 = biological target: MYH9
SART3 = biological target: SART3

other: log2 fold change (FUBP3): -2.5
other: log2 fold change (HNRNPA2B1): -1.3
other: log2 fold change (ILF3): -1.6
other: log2 fold change (MYH9): 0.43
other: log2 fold change (SART3): -2.5
Substance: FLAG-tagged DND1 wild-type (Dead End, full-length human protein 1-353) (from UniProt Q8IYX4) R98A

— publication PMC9537309
